# B1: Serine protease HTRA3 (Homo sapiens), P83110-1 (parent)
# chain: MQARALLLAALAALALAREPPAAPCPARCDVSRCPSPRCPGGYVPDLCNCCLVCAASEGEPCGGPLDSPCGESLECVRGLCRCRWSHAVCGTDGHTYANVCALQAASRRALQLSGTPVRQLQKGACPLGLHQLSSPRYKFNFIADVVEKIAPAVVHIELFLRHPLFGRNVPLSSGSGFIMSEAGLIITNAHVVSSNSAAPGRQQLKVQLQNGDSYEATIKDIDKKSDIATIKIHPKKKLPVLLLGHSADLRPGEFVVAIGSPFALQNTVTTGIVSTAQREGRELGLRDSDMDYIQTDAIINYGNSGGPLVNLDGEVIGINTLKVTAGISFAIPSDRITRFLTEFQDKQIKDWKKRFIGIRMRTITPSLVDELKASNPDFPEVSSGIYVQEVAPNSPSQRGGIQDGDIIVKVNGRPLVDSSELQEAVLTESPLLLEVRRGNDDLLFSIAPEVVM
# B2: Serine protease HTRA3 (Homo sapiens), P83110-1 (parent)
# chain: B1 chain
# partner: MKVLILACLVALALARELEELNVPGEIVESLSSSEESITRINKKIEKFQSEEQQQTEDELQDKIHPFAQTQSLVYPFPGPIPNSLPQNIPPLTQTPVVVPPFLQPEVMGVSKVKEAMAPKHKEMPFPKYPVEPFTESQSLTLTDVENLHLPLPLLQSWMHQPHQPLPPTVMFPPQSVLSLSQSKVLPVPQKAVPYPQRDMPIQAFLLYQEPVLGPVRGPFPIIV
# Variants of: B1
# Details: with xiap_human XIAP
row,Variant,effect of a mutation on the interaction
1,MQARALLLAALAALALAREPPAAPCPARCDVSRCPSPRCPGGYVPDLCNCCLVCAASEGEPCGGPLDSPCGESLECVRGLCRCRWSHAVCGTDGHTYANVCALQAASRRALQLSGTPVRQLQKGACPLGLHQLSSPRYKFNFIADVVEKIAPAVVHIELFLRHPLFGRNVPLSSGSGFIMSEAGLIITNAHVVSSNSAAPGRQQLKVQLQNGDSYEATIKDIDKKSDIATIKIHPKKKLPVLLLGHSADLRPGEFVVAIGSPFALQNTVTTGIVSTAQREGRELGLRDSDMDYIQTDAIINYGNSGGPLVNLDGEVIGINTLKVTAGISFAIPSDRITRFLTEFQDKQIKDWKKRFIGIRMATITPSLVDALKASNPDFPEVSSGIYVAEVAPNSPSQRGGIQDGDIIVKVNGRPLVDSSELQEAVLTESPLLLEVRRGNDDLLFSIAPEVVM [R362A;E371A;Q389A],with no effect

# Variants of: B2
# Details: with casb_bovin CSN2, P02666
row,Variant,effect of a mutation on the interaction
1,MQARALLLAALAALALAREPPAAPCPARCDVSRCPSPRCPGGYVPDLCNCCLVCAASEGEPCGGPLDSPCGESLECVRGLCRCRWSHAVCGTDGHTYANVCALQAASRRALQLSGTPVRQLQKGACPLGLHQLSSPRYKFNFIADVVEKIAPAVVHIELFLRHPLFGRNVPLSSGSGFIMSEAGLIITNAHVVSSNSAAPGRQQLKVQLQNGDSYEATIKDIDKKSDIATIKIHPKKKLPVLLLGHSADLRPGEFVVAIGSPFALQNTVTTGIVSTAQREGRELGLRDSDMDYIQTDAIINYGNSGGPLVNLDGEVIGINTLKVTAGISFAIPSDRITRFLTEFQDKQIKDWKKRFIGIRMATITPSLVDALKASNPDFPEVSSGIYVAEVAPNSPSQRGGIQDGDIIVKVNGRPLVDSSELQEAVLTESPLLLEVRRGNDDLLFSIAPEVVM [R362A;E371A;Q389A],with no effect
